Consider 49 substances from patent US20230038638A1, “COMPLEMENT FACTOR I-RELATED COMPOSITIONS AND METHODS” (published 2023).

Assay [1] concerns the target T1, human C4b (human) (UniProt P0C0L5).
T1 sequence: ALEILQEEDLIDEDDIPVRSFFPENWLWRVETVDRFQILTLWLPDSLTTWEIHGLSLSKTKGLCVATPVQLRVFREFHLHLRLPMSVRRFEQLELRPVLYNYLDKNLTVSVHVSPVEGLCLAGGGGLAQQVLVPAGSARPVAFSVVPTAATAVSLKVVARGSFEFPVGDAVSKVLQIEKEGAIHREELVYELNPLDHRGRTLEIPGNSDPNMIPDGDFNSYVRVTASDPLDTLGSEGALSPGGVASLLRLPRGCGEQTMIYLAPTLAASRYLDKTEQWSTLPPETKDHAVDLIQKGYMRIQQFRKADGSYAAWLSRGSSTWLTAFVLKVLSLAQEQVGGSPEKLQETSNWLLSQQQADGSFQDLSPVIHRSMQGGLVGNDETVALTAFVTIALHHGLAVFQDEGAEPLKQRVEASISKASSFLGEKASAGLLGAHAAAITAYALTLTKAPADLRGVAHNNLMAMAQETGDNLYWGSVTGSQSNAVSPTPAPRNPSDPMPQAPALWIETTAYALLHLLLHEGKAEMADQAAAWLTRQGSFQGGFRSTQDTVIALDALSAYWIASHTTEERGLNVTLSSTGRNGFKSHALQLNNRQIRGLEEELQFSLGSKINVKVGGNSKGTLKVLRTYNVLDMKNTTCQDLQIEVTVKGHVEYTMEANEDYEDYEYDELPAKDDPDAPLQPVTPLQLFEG

Assay [2] concerns the target soluble human C3b (human) (UniProt P01024).

As for “CFI-HSA Y408L; E457G; D425R; E530Y (enzyme)”, the C4b Screen Ref Fold (fold vs CFI-HSA wild type) in assay [1] worked out at 1.68. The iC3b Screen Ref Fold (fold vs CFI-HSA wild type) in assay [2] came out at 1.74.
Taken in the same sequence, the figures for “CFI-HSA Y408L; E457G; E461Q; R462K; N531G; GGSSGG (SEQ ID NO: 6); CR1 (ccp15-17) (from UniProt P17927) (enzyme)” were 1.84 and 0.18.
Taken in the same sequence, the figures for “CFI-HSA Y408L; E457G; E461Q; R462K; N531G; R557A (enzyme)” were 3.22 and 1.29.
Take “CFI-HSA Y408L; E457G; E461Q; R462K; N531G; R557K (enzyme)”: the C4b Screen Ref Fold (fold vs CFI-HSA wild type) in assay [1] stood at 4.01. In assay [2], the iC3b Screen Ref Fold (fold vs CFI-HSA wild type) was 1.14.
Taken in the same sequence, the figures for “CFI-HSA Y408L; E457G; E461Q; R462K; N531G; ΔC-term (Δ558-PFISQYNV (SEQ ID NO: 14)-565) (enzyme)” were 1.67 and 0.24.
As to CFI-HSA Y408L; E457G; E530Y (enzyme), the C4b Screen Ref Fold (fold vs CFI-HSA wild type) in assay [1] was found to be 2. Moreover, the iC3b Screen Ref Fold (fold vs CFI-HSA wild type) in assay [2] was 1.12.
For “CFI-HSA Y408L; E457G; N531G; D425R; E530Y (enzyme)” the same measures were 4.1 and 1.08.
Taken in the same sequence, the figures for “CFI-HSA Y408L; E457G; N531G; E530Y (enzyme)” were 4.16 and 2.07.
For the substance “CFI-HSA Y408L; E457G; R462K; F464Y; N531G; GGSSGG (SEQ ID NO: 6); CR1 (ccp15-17) (from UniProt P17927) (enzyme)”, the C4b Screen Ref Fold (fold vs CFI-HSA wild type) in assay [1] stood at 2.74. Besides, the iC3b Screen Ref Fold (fold vs CFI-HSA wild type) in assay [2] was found to be 0.02.
CFI-HSA Y408L; E530Y (enzyme): the C4b Screen Ref Fold (fold vs CFI-HSA wild type) in assay [1] worked out at 0.33. Besides, the iC3b Screen Ref Fold (fold vs CFI-HSA wild type) in assay [2] stood at 1.93.
For “CFI-HSA Y408L; N531G; D425R; E530Y (enzyme)” the same measures were 2.99 and 2.08.
Taken in the same sequence, the figures for CFI-HSA Y408L; N531G; E530Y (enzyme) were 2.25 and 2.11.
Take CFI-HSA Y408L; N531G; R557A (enzyme): in assay [1], the C4b Screen Ref Fold (fold vs CFI-HSA wild type) amounted to 3.77. The iC3b Screen Ref Fold (fold vs CFI-HSA wild type) in assay [2] amounted to 0.77.
For “CFI-HSA Y408L; N531G; ΔC-term (Δ558-PFISQYNV (SEQ ID NO: 14)-565) (enzyme)”, the C4b Screen Ref Fold (fold vs CFI-HSA wild type) in assay [1] was 1.85. The iC3b Screen Ref Fold (fold vs CFI-HSA wild type) in assay [2] amounted to 0.3.
For CFI-HSA Y553A (enzyme) the same measures were 0.52 and 1.1.
Consider CFI-HSA Y553E (enzyme), for which the C4b Screen Ref Fold (fold vs CFI-HSA wild type) in assay [1] came out at 0.51. For the same substance, the iC3b Screen Ref Fold (fold vs CFI-HSA wild type) in assay [2] stood at 0.38.
As for CFI-HSA Y553G (enzyme), in assay [1], the C4b Screen Ref Fold (fold vs CFI-HSA wild type) came to 0.48. For the same substance, the iC3b Screen Ref Fold (fold vs CFI-HSA wild type) in assay [2] came to 0.88.
For CFI-HSA Y553H (enzyme) the same measures were 1.56 and 1.11.
For CFI-HSA Y553I (enzyme) the same measures were 0.51 and 1.06.
For CFI-HSA Y553K (enzyme) the same measures were 1.49 and 1.12.
As to CFI-HSA Y553L (enzyme), in assay [1], the C4b Screen Ref Fold (fold vs CFI-HSA wild type) stood at 0.67. Further, in assay [2], the iC3b Screen Ref Fold (fold vs CFI-HSA wild type) worked out at 0.93.
As for CFI-HSA Y553N (enzyme), the C4b Screen Ref Fold (fold vs CFI-HSA wild type) in assay [1] amounted to 0.6. In assay [2], the iC3b Screen Ref Fold (fold vs CFI-HSA wild type) was found to be 0.63.
Taken in the same sequence, the figures for CFI-HSA Y553Q (enzyme) were 0.77 and 1.09.
Taken in the same sequence, the figures for CFI-HSA Y553R (enzyme) were 0.78 and 1.38.
For CFI-HSA Y553S (enzyme) the same measures were 0.76 and 0.93.
As for CFI-HSA Y553V (enzyme), the C4b Screen Ref Fold (fold vs CFI-HSA wild type) in assay [1] was 0.37. Also, the iC3b Screen Ref Fold (fold vs CFI-HSA wild type) in assay [2] amounted to 1.1.
For “CFI-HSA variant 420-DGNK (SEQ ID NO: 15)-424 --> GG (enzyme)” the same measures were 0.07 and 0.15.
Taken in the same sequence, the figures for “CFI-HSA variant 514-MDANNVT (SEQ ID NO: 13)-520 --> NG (enzyme)” were 0.12 and 0.04.
Turning to CFI-HSA variant A328C; W468C (enzyme), in assay [1], the C4b Screen Ref Fold (fold vs CFI-HSA wild type) was -0.06. For the same substance, in assay [2], the iC3b Screen Ref Fold (fold vs CFI-HSA wild type) amounted to 0.
For “CFI-HSA variant A328C; W468C; K326Y; R327N (enzyme)” the same measures were 0.15 and 0.01.
Taken in the same sequence, the figures for CFI-HSA variant A361G (enzyme) were 0.84 and 0.64.
On to “CFI-HSA variant D425K; E457G; E461Q; N531G; R557A (enzyme)”, for which, in assay [1], the C4b Screen Ref Fold (fold relative to CFI-HSA wild type) was 2.8. Besides, in assay [2], the iC3b Screen Ref Fold (fold relative to CFI-HSA wild type) was 0.08.
Consider “CFI-HSA variant D425R; Y408L; N531G; E457G; E461Q; R462K; F464Y; E416A (enzyme)”, for which, in assay [1], the C4b Screen Ref Fold (fold of CFI-HSA wild type) came out at 3.88. The iC3b Screen Ref Fold (fold of CFI-HSA wild type) in assay [2] stood at 1.63.
For the substance CFI-HSA variant D506A (enzyme), the C4b Screen Ref Fold (fold vs CFI-HSA wild type) in assay [1] was 0.02. Further, the iC3b Screen Ref Fold (fold vs CFI-HSA wild type) in assay [2] turned out to be 0.
Taken in the same sequence, the figures for CFI-HSA variant D506E (enzyme) were 0.01 and 0.
For CFI-HSA variant D506V (enzyme) the same measures were 0.06 and 0.
Take CFI-HSA variant E38A; D425R (enzyme): the C4b Screen Ref Fold (fold vs CFI-HSA wild type) in assay [1] was 0.96. Further, in assay [2], the iC3b Screen Ref Fold (fold vs CFI-HSA wild type) amounted to 0.83.
In the case of “CFI-HSA variant E457G; E461Q; R462K; F464Y; N531G; GGSSGG (SEQ ID NO: 6); CR1(ccp15-17) (from UniProt P17927) (enzyme)”, the C4b Screen Ref Fold (fold of CFI-HSA wild type) in assay [1] turned out to be 5.42. For the same substance, in assay [2], the iC3b Screen Ref Fold (fold of CFI-HSA wild type) was -0.01.
Taken in the same sequence, the figures for “CFI-HSA variant E457G; GGSSGG (SEQ ID NO: 6); CR1(ccp1-3) (from UniProt P17927) (enzyme)” were 1.73 and -0.04.
Taken in the same sequence, the figures for “CFI-HSA variant E457G; N531G; P535G; P558S (enzyme)” were 1.56 and 0.87.
Taken in the same sequence, the figures for “CFI-HSA variant E457G; N531G; P535G; WT; GGSSGG (SEQ ID NO: 6); CR1(ccp15-17) (from UniProt P17927) (enzyme)” were 5.82 and 0.03.
Turning to “CFI-HSA variant E457G; N531G; WT; GGSSGG (SEQ ID NO: 6); CR1(ccp15-17) (from UniProt P17927) (enzyme)”, in assay [1], the C4b Screen Ref Fold (fold of CFI-HSA wild type) came out at 4.95. In assay [2], the iC3b Screen Ref Fold (fold of CFI-HSA wild type) amounted to 0.15.
For “CFI-HSA variant E457G; P535G; N422K (enzyme)” the same measures were 1.87 and 1.43.
For “CFI-HSA variant E457G; P535G; WT; GGSSGG (SEQ ID NO: 6); CR1(ccp15-17) (from UniProt P17927) (enzyme)”, the C4b Screen Ref Fold (fold of CFI-HSA wild type) in assay [1] was determined as 3.89. The iC3b Screen Ref Fold (fold of CFI-HSA wild type) in assay [2] was determined as 0.07.
As to “CFI-HSA variant E457G; WT; GGSSGG (SEQ ID NO: 6); CR1(ccp15-17) (from UniProt P17927) (enzyme)”, the C4b Screen Ref Fold (fold of CFI-HSA wild type) in assay [1] was found to be 6.11. For the same substance, the iC3b Screen Ref Fold (fold of CFI-HSA wild type) in assay [2] was determined as 0.1.
For CFI-HSA variant E487A; K14A (enzyme) the same measures were 0.87 and 1.71.
Take CFI-HSA variant E530D (enzyme): in assay [1], the C4b Screen Ref Fold (fold vs CFI-HSA wild type) was 0.24. In assay [2], the iC3b Screen Ref Fold (fold vs CFI-HSA wild type) came to 0.25.
For CFI-HSA variant E530G (enzyme) the same measures were -0.02 and 0.12.
Taken in the same sequence, the figures for CFI-HSA variant E536A (enzyme) were 0.57 and 0.76.
